Assay results taken from article PMC5322387 (2017).

B5: E3BP L3S' L3S' didomain (protein)
chain: PIKILMPSLSPTMEEGNIVKWLKKEGEAVSAGDALCEIETDKAVVTLDASDDGILAKIVVEEGSKNIRLGSLIGLIVEEGEDWKHVEIPKDVGPPPPVSKPSEPRPSPEPQISIPVKKEHIPGTLRFRLSPAARNILEKHSLDASQGTATGPRGIFTKEDALKLV
B7: E2 L1L2S-ML1 L1L2S tridomain (protein)
chain: HQKVPLPSLSPTMQAGTIARWEKKEGDKINEGDLIAEVETDKATVGFESLEECYMAKILVAEGTRDVPIGAIICITVGKPEDIEAFKNYTLDSSAAPTPQAAPAPTPAATASPPTPSAQAPGSSYPPHMQVLLPALSPTMTMGTVQRWEKKVGEKLSEGDLLAEIETDKATIGFEVQEEGYLAKILVPEGTRDVPLGTPLCIIVEKEADISAFADYRPTEVTDLKPQVPPPTPPPVAAVPPTPQPLAPTPSAPCPATPAGPKGRVFVSPLAKKLAVEKGIDLTQVKGTGPDGRITKKDIDSFV
B8: E2 L1L2S-ML2 L1L2S tridomain (protein)
chain: HQKVPLPSLSPTMQAGTIARWEKKEGDKINEGDLIAEVETDKATVGFESLEECYMAKILVAEGTRDVPIGAIICITVGKPEDIEAFKNYTLDSSAAPTPQAAPAPTPAATASPPTPSAQAPGSSYPPHMQVLLPALSPTMTMGTVQRWEKKVGEKLSEGDLLAEIETDKATIGFEVQEEGYLAKILVPEGTRDVPLGTPLCIIVEKEADISAFADYRPTEVTDLKPQVPPPTPPPVAAVPPTPQPLAPTPSAPCPATPAGPKGRVFVSPLAKKLAVEKGIDLTQVKGTGPDGRITKKDIDSFV
B14: E2 L2S L2S didomain (protein)
chain: HMQVLLPALSPTMTMGTVQRWEKKVGEKLSEGDLLAEIETDKATIGFEVQEEGYLAKILVPEGTRDVPLGTPLCIIVEKEADISAFADYRPTEVTDLKPQVPPPTPPPVAAVPPTPQPLAPTPSAPCPATPAGPKGRVFVSPLAKKLAVEKGIDLTQVKGTGPDGRITKKDIDSFV
B19: E2 L1 L1 lipoyl domain (protein)
chain: HQKVPLPSLSPTMQAGTIARWEKKEGDKINEGDLIAEVETDKATVGFESLEECYMAKILVAEGTRDVPIGAIICITV

What was measured:
[1] = target: B19; experiment: fluorescence titration
[2] = target: B14; experiment: fluorescence titration
[3] = target: B7; experiment: fluorescence titration
[4] = target: T1, PDK2 (Homo sapiens, UniProt Q15119); experiment: fluorescence titration
[5] = target: T1, PDK2; experiment: fluorescence titration (quenching)
[6] = target: B8; experiment: fluorescence titration
[7] = target: B5; experiment: fluorescence titration
[8] = target: B5; experiment: fluorescence titration (quenching)

B1: PDK1 (protein)
chain: not shown
modifications: lipoylated, DANS-As-labeled L1
In the case of B1, the Kd [1] is reported as 4430 nM.

B2: PDK3 (protein)
chain: not shown
modifications: lipoylated, DANS-As-labeled L1
B2 gave a Kd [1] of 620 nM.

B3: PDK1 (protein)
chain: not shown
modifications: lipoylated, DANS-As-labeled L2S
B3 showed a Kd [2] of 17100 nM.

B4: PDK4 (protein)
chain: not shown
modifications: L1 lipoylation Lys to Ala, lipoylated, DANS-As-labeled
In the case of B4, the Kd [3] is reported as 270 nM.

For B5, the Kd [4] was 2070 nM and the Kd [5] was 25 nM.

B6: PDK3 (protein)
chain: not shown
modifications: L2 lipoylation Lys to Ala, lipoylated, DANS-As-labeled
In the case of B6, the Kd [6] is reported as 396 nM.

B7 gave a Kd [4] of 890 nM.

B8 gave a Kd [4] of 640 nM.

B9: PDK4 (protein)
chain: not shown
modifications: lipoylated, DANS-As-labeled L3S'
Binder B9 has a Kd [7] of 5930 nM.

B10: PDK3 (protein)
chain: not shown
modifications: L1 lipoylation Lys to Ala, lipoylated, DANS-As-labeled
For B10, the Kd [3] was 540 nM.

B11: PDK1 (protein)
chain: not shown
modifications: L1 lipoylation Lys to Ala, lipoylated, DANS-As-labeled
Work on B11 yielded a Kd [3] of 2100 nM.

B12: PDK3 (protein)
chain: not shown
modifications: lipoylated, DANS-As-labeled L2S
B12 was tested, and the Kd [2] was 1210 nM.

B13: PDK4 (protein)
chain: not shown
modifications: lipoylated, DANS-As-labeled L1
B13 was tested, and the Kd [1] was 350 nM.

With B14 the Kd [4] was 1380 nM.

B15: PDK4 (protein)
chain: not shown
modifications: L2 lipoylation Lys to Ala, lipoylated, DANS-As-labeled
In the case of B15, the Kd [6] is reported as 397 nM.

B16: PDK4 (protein)
chain: not shown
modifications: dapoxyl-labeled L3S'
Work on B16 yielded a Kd [7] of 5020 nM.

B17: PDK1 (protein)
chain: not shown
modifications: L2 lipoylation Lys to Ala, lipoylated, DANS-As-labeled
For B17, the Kd [6] was 3620 nM.

B18: PDK4 (protein)
chain: not shown
modifications: lipoylated, DANS-As-labeled L2S
B18 showed a Kd [2] of 2070 nM.

For B19, the Kd [4] was 910 nM.

B20: PDK3 (protein)
chain: not shown
modifications: lipoylated, DANS-As-labeled L3S'
B20 gave a Kd [8] of 103 nM.
